Data as given in patent US20030012785A1 (WATSON PHARMACEUTICALS, published 2003).

Molecular target: T1, IL-2 receptor (mouse, on CTLL-2 cells and murine splenocytes) (mouse, UniProt P01590 22-268; P16297 27-539; P34902 23-369)
T1 sequence (looked up) 1: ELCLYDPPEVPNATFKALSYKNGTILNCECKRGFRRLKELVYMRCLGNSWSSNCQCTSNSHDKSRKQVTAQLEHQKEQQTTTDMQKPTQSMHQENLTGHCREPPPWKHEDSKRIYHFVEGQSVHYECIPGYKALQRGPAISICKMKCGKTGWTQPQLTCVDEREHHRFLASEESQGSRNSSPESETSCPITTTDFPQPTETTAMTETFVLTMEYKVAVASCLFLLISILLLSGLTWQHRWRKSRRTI
T1 sequence (looked up) 2: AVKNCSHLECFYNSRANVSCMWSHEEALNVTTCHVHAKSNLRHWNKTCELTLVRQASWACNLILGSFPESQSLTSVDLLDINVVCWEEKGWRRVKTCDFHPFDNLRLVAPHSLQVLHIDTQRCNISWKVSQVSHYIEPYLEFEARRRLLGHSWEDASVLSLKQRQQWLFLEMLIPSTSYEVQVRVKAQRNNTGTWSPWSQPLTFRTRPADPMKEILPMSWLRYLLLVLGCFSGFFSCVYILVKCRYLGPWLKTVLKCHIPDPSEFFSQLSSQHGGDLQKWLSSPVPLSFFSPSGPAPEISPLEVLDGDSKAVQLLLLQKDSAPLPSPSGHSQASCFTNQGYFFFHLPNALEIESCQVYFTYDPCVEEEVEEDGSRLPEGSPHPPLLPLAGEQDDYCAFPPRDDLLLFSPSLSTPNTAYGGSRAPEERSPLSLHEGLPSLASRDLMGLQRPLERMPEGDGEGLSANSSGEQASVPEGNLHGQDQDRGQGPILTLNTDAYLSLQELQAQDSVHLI
T1 sequence (looked up) 3: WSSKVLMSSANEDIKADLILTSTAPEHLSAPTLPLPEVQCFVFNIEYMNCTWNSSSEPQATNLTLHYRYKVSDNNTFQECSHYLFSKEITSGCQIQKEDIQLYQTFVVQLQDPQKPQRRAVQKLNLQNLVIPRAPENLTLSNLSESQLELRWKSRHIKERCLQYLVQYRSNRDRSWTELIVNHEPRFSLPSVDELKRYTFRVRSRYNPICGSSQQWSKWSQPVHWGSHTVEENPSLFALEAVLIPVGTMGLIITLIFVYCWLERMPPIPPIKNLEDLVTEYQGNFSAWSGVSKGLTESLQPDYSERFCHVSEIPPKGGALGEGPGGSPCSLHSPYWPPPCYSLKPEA
Experiment: cell-based or functional assay

TGLNRILLGFLG [unconjugated peptide TT23]
Percent inhibition of IL-2 induced proliferation of murine splenocytes (recombinant human IL-2, trypan blue viable cell counts, 48 hours); amount needed relative to PEG-TT23: ~100 fold
